The values below come from patent US20230257452A1 (GTINVENT, published 2023).

For one assay, the target named is Tau 337-368 (human). Briefly: ELISA, antigen coated, scAb titrated; panel title 337-368. The text has this:
(§1) The plates were blocked with 2% MPBS and scAb samples added at desired starting concentrations and double diluted across the plate. Binding was detected using anti-Human C Kappa HRP conjugated secondary antibody and the resulting immunoreaction was developed and absorbance values measured as described above.

Assay [1] has as its target T1, N biotin 341-353 tau peptide (human).
T1 peptide: Biotin-SEKLDFKDRVQSK
As to the kind of experiment: ELISA, biotinylated peptide on streptavidin, scAb titrated [B]. On the procedure:
Briefly, 5 μg/ml streptavidin (Thermo Fisher) was adsorbed to Nunc 96-well MaxiSorp plates and following incubation at 37° C. for 1 h, the plates were washed as normal and blocked with 2% MPBS. […] Subsequently, test scAbs at starting concentrations of 100-500 nM was added and double diluted across the plate for each peptide and incubated for 1 h at 37° C. Rest of the ELISA was conducted as described above and the plates were read at absorbance 450 nm. Immunoreactivity of the scAb of interest was quantified as the % of scAb was bound for each peptide at a chosen concentration (FIG. 15-20).
For orientation: ELISA stands for enzyme-linked immunosorbent assay.

The target in assay [2] is T2, dGAE (tau 297-391) (human, UniProt P10636 614-708).
T2 construct: also called dGAE95
As to the kind of experiment: tau-tau immunoassay: scAb preincubated with 100 nM dGAE; blocked ligand: plate-bound dGA (1000 nM); bound dGAE detected with E2E8. On the procedure: The adapted method is as follows: dGA (1000 nM) was adsorbed to a Nunc 96-well MaxiSorp plate and incubated for 1 h at 37° C. Plates were subsequently washed 3 times with PBST which was performed after each 1 h incubation. The plates were blocked with 2% (w/v) dried milk powder in PBS for 1 h at 37° C. […] The secondary antibody used was HRP-conjugated Anti-mouse IgG (1:1000 dilution, Sigma) and incubated at RT for 1 h. The plate was subsequently developed, and readings taken at absorbance 450 nm.

Assay [3] has as its target T3, full length human tau protein (2N4R, isoform Tau-F, 441 amino acids) (human, UniProt P10636 1-758).
T3 construct: also called hT40; htau40
Briefly: ELISA, hT40 coated, scAb titrated.

In assay [4] the target is T3, full length human tau protein (2N4R, …). As to the kind of experiment: sandwich ELISA, S1D12 mAb capture, hT40 titrated, detection scAb at 10 ug/ml, colourimetric. On the procedure: (§2) Full length tau (hT40), at 1 μg/ml starting concentration was added to designated wells and double diluted across rest of the plates and left to incubate at R/T for 1 h. A series of detection scAbs with varying epitope recognition properties were added at 10 μg/ml to designated wells (FIG. 22). For colourimetric detection HRP conjugated anti-HuCk secondary antibody was used and the resulting immunoreaction was developed and absorbance at 450 nm measured as described previously. Cut-off point for a positive binding event was an absorbance value of 0.3 following background subtraction. In order to enhance the assay sensitivity, a chemiluminescent detection method was adopted where 50 μL SuperSignal ELISA Femto Substrate (Thermo Scientific) was added to each well following incubation with anti-HuCK HRP antibody and subsequent washing. The luminescence was read using Clariostar Plus microplate reader. A further modification to this protocol was done where various detection scAbs were directly conjugated with HRP and detected using chemiluminescent protocol as before.

Assay [5] has the same target. Briefly: sandwich ELISA, S1D12 mAb capture, hT40 titrated, detection scAb, chemiluminescent. On the procedure: as §2
Assay [6] has as its target T4, mouse tau (isoform Tau-A) (mouse, UniProt P10637 2-733).
T4 construct: endogenous tau in mouse brain homogenate or plasma; also called endogenous mouse tau
Briefly: sandwich ELISA on mouse brain homogenates (incl. wild type), S1D12 mAb capture.

Assay [7] addresses T5, dGAE aggregates (human, UniProt P10636 614-708, limits assumed).
T5 construct: 100 µM dGAE aggregated with DTT at 37 °C, 700 rpm, 24 h; also called aggregated dGAE
As to the kind of experiment: capture ELISA, mAb coated at 1 ug/ml, dGAE aggregates titrated, S1G2 scAb detection.

For assay [8], the target named is T3, full length human tau protein (2N4R, …). As to the kind of experiment: ELISA, hT40 coated, scAb titrated. The source holds these as a separate data set.
The target in assay [9] is T2, dGAE (tau 297-391). As to the kind of experiment: sandwich ELISA, 423 mAb capture, dGAE titrated, scAb at 10 ug/ml as detector [cont) G-I]. On the procedure:
(§3) Following overnight agitation, one third of each sample was kept aside as ‘total’ and the rest was spun down at 16000×g for 30 min and separated into ‘supernatant’ and ‘pellet’. The pellet was then resuspended in half the original volume for further experiments. […] All double dilutions were done in final volumes of 100 μl. This was left to incubate on lab bench for 1 h followed by the addition of test scAbs at 10 μg/ml.

Assay [10] addresses T5, dGAE aggregates. As to the kind of experiment: sandwich ELISA, 423 mAb capture, aggregation sample titrated, scAb at 10 ug/ml as detector [cont) G-I]. On the procedure:
as §3

The next assay deals with dGA (tau 297-390) (human, UniProt P10636 614-707). As to the kind of experiment: ELISA.
Text: as §1

Assay [11] has as its target T3, full length human tau protein (2N4R, …). As to the kind of experiment: ELISA.
Text: as §1

Another assay addresses Tau 1-319 (human, UniProt P10636 1-636). Briefly: ELISA.
Text: as §1

Where no end group is shown, it is not given here. The star is where a group is joined. Biotin = O=C1N[C@H]2[C@H](CS[C@H]2CCCCC(=O)*)N1

As a reminder, the EC50 (read off the curve) is the midpoint of the concentration-response curve. Lower therefore signals greater potency.

T3 sequence (P10636 other isoform, or with tags, fused parts or gaps limits assumed): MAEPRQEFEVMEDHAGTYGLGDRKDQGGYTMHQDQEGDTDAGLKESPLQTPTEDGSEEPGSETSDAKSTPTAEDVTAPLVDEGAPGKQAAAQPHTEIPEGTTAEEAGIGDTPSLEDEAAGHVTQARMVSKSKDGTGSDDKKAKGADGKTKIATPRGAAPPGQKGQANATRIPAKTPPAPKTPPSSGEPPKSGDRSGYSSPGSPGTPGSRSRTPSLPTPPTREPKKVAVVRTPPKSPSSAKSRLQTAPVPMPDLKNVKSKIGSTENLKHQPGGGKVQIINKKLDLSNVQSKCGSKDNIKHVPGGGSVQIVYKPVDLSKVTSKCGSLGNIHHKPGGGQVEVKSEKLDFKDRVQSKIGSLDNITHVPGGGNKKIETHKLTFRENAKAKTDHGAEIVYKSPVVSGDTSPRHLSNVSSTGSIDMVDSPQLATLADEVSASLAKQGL
T2 sequence (P10636 614-708 limits assumed): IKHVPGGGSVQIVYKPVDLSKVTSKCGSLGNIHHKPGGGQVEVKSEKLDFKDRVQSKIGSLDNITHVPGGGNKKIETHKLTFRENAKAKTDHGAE
T5 sequence (P10636 614-708 limits assumed): as above
Tau 337-368 (human), sequence (chain, as listed by the source): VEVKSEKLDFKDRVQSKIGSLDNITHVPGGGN
dGA (tau 297-390), sequence (P10636 614-707 limits assumed): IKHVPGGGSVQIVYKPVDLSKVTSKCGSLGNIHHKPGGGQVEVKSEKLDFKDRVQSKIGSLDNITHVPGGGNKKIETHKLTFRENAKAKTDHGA
T4 sequence (P10637 other isoform, or with tags, fused parts or gaps limits assumed): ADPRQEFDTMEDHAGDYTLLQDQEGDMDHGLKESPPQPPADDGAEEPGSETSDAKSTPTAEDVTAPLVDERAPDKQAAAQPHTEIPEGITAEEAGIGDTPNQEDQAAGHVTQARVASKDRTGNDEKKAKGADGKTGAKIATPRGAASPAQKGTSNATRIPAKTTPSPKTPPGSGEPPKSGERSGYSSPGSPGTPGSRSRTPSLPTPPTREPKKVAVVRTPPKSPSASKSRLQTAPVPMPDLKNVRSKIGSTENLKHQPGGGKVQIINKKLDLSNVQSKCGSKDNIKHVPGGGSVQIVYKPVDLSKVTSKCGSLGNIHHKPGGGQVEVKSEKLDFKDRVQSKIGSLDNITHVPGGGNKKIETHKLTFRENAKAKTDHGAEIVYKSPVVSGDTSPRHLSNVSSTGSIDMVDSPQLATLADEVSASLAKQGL
Tau 1-319, sequence (P10636 other isoform, or with tags, fused parts or gaps): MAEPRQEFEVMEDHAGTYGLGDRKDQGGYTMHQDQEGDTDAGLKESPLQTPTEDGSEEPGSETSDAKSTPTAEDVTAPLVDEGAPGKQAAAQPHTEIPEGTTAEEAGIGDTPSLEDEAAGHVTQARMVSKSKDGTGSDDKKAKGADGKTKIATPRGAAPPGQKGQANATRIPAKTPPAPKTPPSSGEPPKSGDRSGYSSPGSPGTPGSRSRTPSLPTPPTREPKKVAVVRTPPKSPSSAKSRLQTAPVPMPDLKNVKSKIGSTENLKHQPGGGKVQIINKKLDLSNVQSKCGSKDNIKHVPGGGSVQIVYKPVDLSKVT

B1: S1D12 scAb (scFv)
scFv: QVQLQESGPSLVKPSQTLSLTCTVSGFSLNNNAVGWVRQAPGKVPESLVGCSSDGTCYYNSALKSRLDITRDTSKNQISLSLSSVTTDDAAVYYCTRGHYSIYGYDYLGTIDYWGPGLLVTVSSEGKSSGASGESKVDDQAVLTQPSSVSGSLGQRVSITCSGSSSNVGGGNSVGWYQHLPGSGLKTIIYDTNSRPSGVPDRFSGSRSGNTATLTINSLQAEDEGDYYCVTGDSTTHDDLVGSGTRLTVLG
notes: not shown: human C kappa domain and hexa-His tag of the scAb format
Turning to B1, the binding result (with Tau 337-368; in [1]) was “binds” each time. The same molecule showed a B50 with dGAE (tau 297-391) [2] of 80 nM. The “EC50 (read off the curve)” value in assay [3] is roughly 0.9 µg/mL.

B2: S1G2 scAb (scFv)
scFv: QVQLQESGPSLVKPSQTLSLTCTVSGFSLTSNSVGWVRQAPGKAPEWVAGIDTDGEEGYNPALNSRLSITRDTSKSQVSLSLSSVTSEDTAVYYCGRSYRADGLAYGYVQAIDYWGPGLLVTVSSEGKSSGASGESKVDDQAVVTQPSSVSGSLGQRVSITCSGSFIGISSVGWFQQLPGSGLRTIIVASDGRPSGVPDRFSMSKSGNTATLTISSLQAEDEADYFCGSSDRTPYTGVFGSGTRLTVLG
notes: as for B1
For B2, the “LoD (ng/ml) colourimetric detection” value in assay [4] was determined as 2 ng/mL. The molecule further came in with a B50 with dGAE (tau 297-391) [2] of 65 nM. Also, the “LoD (ng/ml) chemiluminescence detection” value in assay [5] came out at 0.12 ng/mL. In assay [6], the binding result is recorded as “binds”.

B3: E2E8 mAb (antibody, mouse IgG2a, V domains shown)
VH: QVQLQESGPSLVKPSQTLSLTCTVSGFSLTDRGVAWVRQAPGKALEWVGTMRSGGTIDYNPALKSRLSITRDTSKSQVFLSLSSVTTEDMAMYYCARGYLSGDRYAWGRGLLVTVSS
VL: QAVLTQPSSVSKSLGQSVSIACSGSRSDIGYGNYVSWFQQIPGSAPKLLIYDTNTRASGVPDRFSGARSGNTATLTINSLQAEDEADYYCANIDSSRSHLFGSGTRLTVLG
notes: sheep-mouse (IgG2a) chimeric mAb
In the case of B3, the binding result with dGAE aggregates [7] is “binds”.

B4: CB3 scAb (scFv)
scFv: QVQLQESGPSLVKPSQTLSLTCTVSGFSLSSVAVNWVRQAPGKVPEWLGGIISNGGTGYNPALKSRLSITRDTSKSQVSLALTHVTTEDTAVYYCGRGVEWEGSMDYLGPGLLVTVSSEGKSSGSGSETKVDDQSVLTQPSSVSGFLGQRVTITCSGSSSNVGAGSYVGWYQQVPGSGLRILIYGATKRASGLPDRFSGSRSGNTATLTISSLQAEDEADYYCVSYQTDFTLVFGSGTRLTVLG
notes: as for B1
As for B4, the binding result (in [8]; in the assay with dGAE (tau 297-391) [9]; with dGAE aggregates [10]; with dGA (tau 297-390)) was “binds” in each case.

B5: CA7 scAb (scFv, V domains shown)
VH: RVRLQGSGPSLVKPSQTLSLTCTVSGFSFDSYYVGWVRQAPGKALEWLGNIYSTGRAFYNPALKSRLSITRDTSKSQVSLSVSSVTIEDTALYYCVRGSYYHGGGNGMVDFFDYWSPGLLVTVSS
VL: QVVRTQPSSVSGSLGQRVSITCSGSSSNVGYGNYVGWFQQVPGSAPKLLIYAATSRASGVPDRFSGSRSGNTATLTIDSLQAEDEADYYCSSYQRGNTGVFGSGTRLTVLG
notes: tested as scAb (VH-linker-VL-HuCk-His in one chain)
For B5, the binding result (in assay [11]; in the assay with Tau 1-319) was “binds” throughout.
